# Measurements reported in the supplement of paper PMC10724198.
# ± gives the standard deviation of the averaged measurements.
# Tested on: Saccharomyces cerevisiae
# Experiment: protein stability index of tFT-peptide fusion (C-terminal peptide) (PSI (0-1 scale)); higher = more stable (slower turnover)
# Settings: genetic background: wild type; temperature: 30 C
# Method: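 Multiplexed protein stability (MPS) profiling in S. cerevisiae. Random 12-aa peptides (tFT-X12 library) are fused to the C-terminus of a sfGFP-mCherry tandem fluorescent timer, after mCherry and a GGGS linker. Cells are FACS-sorted into 8 mCherry/sfGFP bins and deep-sequenced. The protein stability index (PSI) is the read-weighted bin average, scaled from 0 (unstable) to 1 (stable). Only peptides with >10 reads are reported; cells were grown at 30 °C in SC-His with glucose.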
# 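Note: PSI is a weighted mean of sequencing reads over stability bins, variants kept only with over 10 reads, mCherry proximal and sfGFP distal, peptide attached via GGGS linker.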
row,Sequence,protein stability index
1,FDRWEDCKGTRD,0.71 ± 0.013
2,FFCLVPLALPRF,0.649 ± 0.019
3,FFFGPPPCRSFF,0.731 ± 0.019
4,FFFPSPPPPSLV,0.749 ± 0.05
5,FFLRSPLFPCSH,0.72173 ± 0.00052
6,FFMWDLLFLSLD,0.669 ± 0.011
7,FFPATVGPFSFP,0.731 ± 0.015
8,FFPQPTPVSISR,0.8264 ± 0.0039
9,FFPSSPFLPPPR,0.657 ± 0.1
10,FFSFWVGATTIE,0.70044 ± 0.00014
11,FFVAFGSWFGFL,0.677 ± 0.099
12,FFVRGCLCLSDR,0.693 ± 0.024
13,FFVSHLLRFAIK,0.555 ± 0.0089
14,FGAIREVFYIRL,0.662 ± 0.018
15,FGCGVADLERCL,0.686 ± 0.013
16,FGDLAVFFAFLL,0.564 ± 0.0069
17,FGESGSGSKRCG,0.701 ± 0.12
18,FGFLSVSPLLSV,0.642 ± 0.016
19,FGGEGGEEMAGG,0.789 ± 0.034
20,FGGGLGGGVVLV,0.69158 ± 0.00021
21,FGRFCYELLCGT,0.541 ± 0.056
22,FGSDQFVCRLWS,0.729 ± 0.048
23,FGVALGLRACAG,0.668 ± 0.059
24,FGVVGAVGWRLR,0.638 ± 0.03
25,FGYSGCVAKTGL,0.658 ± 0.049
26,FHSSDLCGPVTS,0.67 ± 0.025

row,Sequence,protein stability index
1,FIKSRRLCCVNL,0.663 ± 0.032
2,FILLLPSPPPAP,0.618 ± 0.034
3,FITRATRESRIG,0.694 ± 0.0073
4,FKKMTNVIKGNN,0.689 ± 0.016
5,FKLSRTDSWMFT,0.712 ± 0.01
6,FKPKAGCSNFAK,0.696 ± 0.025
7,FKSCSLHCSRCS,0.682 ± 0.12
8,FKWSGGGRGVGP,0.679 ± 0.08
9,FLFFLLLYVFFC,0.498 ± 0.048
10,FLGAVVGVGLVG,0.658 ± 0.053
11,FLGECSLLSGFL,0.694 ± 0.033
12,FLGGSRVGRGDG,0.6943 ± 0.0053
13,FLGLFHTVKKWQ,0.684 ± 0.06
14,FLGLSYYRLPVG,0.606 ± 0.046
15,FLIFSLSFCVLS,0.6713 ± 0.0031
16,FLLSLLAFRFFL,0.478 ± 0.04
17,FLLTVFPPLFFP,0.704 ± 0.011
18,FLLVHIFSLFCL,0.547 ± 0.013
19,FLLYGWTRPSCQ,0.735 ± 0.062
20,FLPRRLCVRWRG,0.684 ± 0.065
21,FLPWPSYPTPGP,0.784 ± 0.018
22,FLQSRGWVCNHL,0.655 ± 0.038
23,FLSALLALPASP,0.698 ± 0.0064
24,FLSARVSSSLLL,0.639 ± 0.035
25,FLSGVGSHLTGP,0.653 ± 0.019
26,FLSLAAPQSGGA,0.693 ± 0.027

row,Sequence,protein stability index
1,FLSRCSVRPVTY,0.668 ± 0.021
2,FLSSFVSNHVFW,0.7914 ± 0.0032
3,FLTSPFIITRMP,0.593 ± 0.071
4,FLVPTYISPFSF,0.65 ± 0.027
5,FLWLRLLEAFWF,0.603 ± 0.032
6,FMLCCFPCWCVL,0.6127 ± 0.0041
7,FMRGQCWLRGCE,0.672 ± 0.016
8,FNGANEDCDLGV,0.665 ± 0.12
9,FNNTSFALRSQA,0.741 ± 0.029
10,FPAMVRVDTCGV,0.673 ± 0.059
11,FPAPSPPFRLPP,0.748 ± 0.025
12,FPAYRPARLTPA,0.606 ± 0.033
13,FPFVVVISSSGE,0.693 ± 0.23
14,FPGFHPIFPPPL,0.664 ± 0.093
15,FPHSPPFIPHPP,0.647 ± 0.021
16,FPLDNIALQSFP,0.774 ± 0.099
17,FPLPPFPLTPPP,0.64 ± 0.054
18,FPLQSFCYFVPI,0.597 ± 0.0015
19,FPPRPLPFCSPA,0.643 ± 0.0046
20,FPPVPLVTDTFT,0.675 ± 0.034
21,FPPVVSSLPPPS,0.686 ± 0.14
22,FPRGPLPPAPSP,0.6556 ± 0.006
23,FPRPHPTPLPPG,0.689 ± 0.013
24,FPRSCETPARAL,0.6607 ± 0.0043
25,FPRSMPSPPSSE,0.623 ± 0.035
26,FPRSSGRTVNCV,0.648 ± 0.0084

row,Sequence,protein stability index
1,FPSASPPFLPTP,0.705 ± 0.037
2,FPSPPHALPTFP,0.669 ± 0.071
3,FPSSRGLGGTMG,0.658 ± 0.017
4,FPSTPRPPLPPP,0.668 ± 0.014
5,FQPTYCVHKQNK,0.722 ± 0.024
6,FRCFDAQRLGGV,0.6858 ± 0.002
7,FRDPTVLCCLHI,0.515 ± 0.055
8,FRMNEVSWDVVS,0.675 ± 0.032
9,FRRGGVERGVEG,0.723 ± 0.026
10,FRSFGYSGSMLA,0.6902 ± 0.0013
11,FRSFLSKLNGLF,0.636 ± 0.03
12,FRSGRLSPPAPS,0.692 ± 0.0028
13,FRSRGPVGMGAS,0.686 ± 0.1
14,FRYICYSRPVMR,0.684 ± 0.14
15,FSCEVSFAGLIV,0.6 ± 0.012
16,FSFFPLLARYFF,0.499 ± 0.0052
17,FSGLELRVGCGA,0.732 ± 0.086
18,FSGRRGCFSSYI,0.653 ± 0.037
19,FSLLLSFPCSYL,0.601 ± 0.021
20,FSLLSFLLPLFP,0.787 ± 0.12
21,FSNSSASPPSLS,0.664 ± 0.068
22,FSPDSDFTRCAP,0.701 ± 0.002
23,FSPPPLPAASPS,0.664 ± 0.071
24,FSPYLYNIRTSL,0.612 ± 0.024
25,FSRAFLDRVIVS,0.713 ± 0.04
26,FSRRQLLCLPHP,0.677 ± 0.0083

row,Sequence,protein stability index
1,FSRSDREIFPRN,0.585 ± 0.07
2,FSRSGIRLLGVA,0.59 ± 0.021
3,FSSARSPLLSRL,0.705 ± 0.041
4,FSSFCFFLPPLN,0.666 ± 0.034
5,FSSFVVVGCWPR,0.625 ± 0.027
6,FSSPLSSPSPLY,0.6834 ± 0.0059
7,FSSSPGRSFRTV,0.726 ± 0.0091
8,FSVFFSPQRGCM,0.759 ± 0.1
9,FTERVVEKFVLY,0.633 ± 0.01
10,FTPDFTPKGSLS,0.791 ± 0.088
11,FTPSSPPLPLLP,0.655 ± 0.11
12,FVASEFEVRLWR,0.769 ± 0.01
13,FVCLRWAVGLGG,0.6204 ± 0.0013
14,FVFGECRGWALV,0.76 ± 0.046
15,FVFSMDAFRSGL,0.665 ± 0.045
16,FVGDPRRLSLPI,0.761 ± 0.14
17,FVGPAWLGVRSC,0.659 ± 0.012
18,FVGVGLVRVVGW,0.618 ± 0.018
19,FVGWGLGVGTHD,0.679 ± 0.0054
20,FVKQSHYCLFHL,0.634 ± 0.011
21,FVLISSPLLRSF,0.623 ± 0.017
22,FVLPLAPAGIAS,0.5817 ± 0.0038
23,FVSRLWKIPTES,0.583 ± 0.034
24,FVVVLSPLVILQ,0.5344 ± 0.0049
25,FVWSGVGCWSEA,0.701 ± 0.0076
26,FWAWEGCTRALM,0.681 ± 0.07

row,Sequence,protein stability index
1,FWGCFVWFCVCG,0.509 ± 0.023
2,FWGPVWNVSWGV,0.695 ± 0.019
3,FWSRGANGGVLV,0.6775 ± 0.0037
4,FYPHFCAHTRPH,0.7265 ± 0.0054
5,FYSPSAPSPFFL,0.797 ± 0.052
6,GADSWFGVVDVC,0.75 ± 0.1
7,GAEHGVRTTAVT,0.658 ± 0.014
8,GAEKEPEPRRLA,0.699 ± 0.06
9,GAGGVWGGGQAG,0.696 ± 0.041
10,GAGLGGGRGRRW,0.68617 ± 0.00065
11,GAGRLGGDRVVG,0.698 ± 0.037
12,GAGVEIGKSRYR,0.716 ± 0.074
13,GAKCLFVSGGGI,0.6804 ± 0.0047
14,GALYGARCNFEL,0.72017 ± 0.00015
15,GAMLAGRQGWGL,0.679 ± 0.018
16,GAPPLAPTPPPP,0.745 ± 0.024
17,GAPPRPKTGRTF,0.7118 ± 0.00075
18,GAPRESSEGRAQ,0.725 ± 0.095
19,GAPVGRRPGRDR,0.703 ± 0.035
20,GAREHGSNDYGP,0.635 ± 0.036
21,GARSARVWARAK,0.664 ± 0.022
22,GARVRIRVNDKK,0.677 ± 0.021
23,GASPLPSPADHL,0.717 ± 0.14
24,GATGGACGVWAG,0.668 ± 0.048
25,GAVRGDRLTHTG,0.734 ± 0.028
